Data taken from publication PMC5818740 (Protein Science : A Publication of the Protein Society, 2018).
Values belong to the binder of their own block, whether it stands above or below them.

How the values were obtained:
[1] = biological target: the molecule itself; assay: crystal structure; disulfide-bridged, bCPA-treated PICK1 PDZ-QS dimer with BIO124, seeded with PICK1 PDZ-QSAV crystals; 0.1 M BisTRIS pH 5.5, 25% PEG3350, 4°C; 1.75 Å
[2] = biological target: T1, lysine-methylated dimeric PICK1 PDZ-QSAV (human | , UniProt Q9NRD5 1-105, surface lysines methylated with 19C-labeled formaldehyde (so in the source)); assay: NMR titration; 1H-13C HSQC of lysine-methylated dimeric PICK1 PDZ-QSAV with GluA2 peptide added; 40 mM sodium phosphate pH 6.8, 150 mM NaCl, 0.2 mM EDTA, DMSO, D2O; 298 K; conditions: both partners purified
T1 construct: human PICK1, residues 1 to 105, holding the PDZ domain; The methods say 'dimeric PICK1 PDZ-QSAV'; also called methylated PICK1 PDZ material; source: E. coli BL21 (DE3), purified; surface lysines methylated with labelled formaldehyde and sodium cyanoborohydride
T1 chain: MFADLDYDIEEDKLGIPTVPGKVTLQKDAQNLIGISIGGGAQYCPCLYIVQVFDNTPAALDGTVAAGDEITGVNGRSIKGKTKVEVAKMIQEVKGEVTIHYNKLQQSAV

[3] = biological target: the molecule itself; assay: SEC; Superdex 75 in 25 mM TRIS-HCl pH 8.0, 250 mM NaCl, 5% glycerol, 2 mM DTT (reducing conditions)
[4] = biological target: the molecule itself; assay: crystal structure; disulfide-locked PICK1 PDZ-QSAV dimer, crystallised with 4.5 molar equivalents of BIO124; 0.1 M BisTRIS pH 5.5, 25% PEG3350, 4°C; 2.44 Å

B1: bCPA-treated PICK1 PDZ-QS (disulfide-bridged dimer, with BIO124) (domain or fragment)
chain: MFADLDYDIEEDKLGIPTVPGKVTLQKDAQNLIGISIGGGAQYCPCLYIVQVFDNTPAALDGTVAAGDEITGVNGRSIKGKTKVEVAKMIQEVKGEVTIHYNKLQQS
modifications: disulfide-bridged dimer
notes: human PICK1, residues 1 to 105, holding the PDZ domain; what is left of the fused PKCalpha QSAV tail after removal of the 0 and -1 position residues (AV) by carboxypeptidase A; Removal of AV was >95% by mass spectrometry; the small molecule BIO124 sits in the peptide groove of both chains; also called PICK1 PDZ-QS BIO124 complex; PICK1-PDZ-BIO124; source: E. coli BL21 (DE3), purified, oxidised …
binding result [1]: binds

binding result [2]: binds
B2: wild type GluA2 peptide (VYGIESVKI) (peptide)
peptide: VYGIESVKI
notes: also called Wt GluR2 peptide; source: synthetic peptide, bought: New England Peptide

B3: PICK1 PDZ-QSAV (unlocked, reduced dimer) (domain or fragment)
chain: MFADLDYDIEEDKLGIPTVPGKVTLQKDAQNLIGISIGGGAQYCPCLYIVQVFDNTPAALDGTVAAGDEITGVNGRSIKGKTKVEVAKMIQEVKGEVTIHYNKLQQSAV
notes: The His tag is TEV cleavable; no cleavage step is described; also called PICK1 PDZ-QSAV protein; source: E. coli BL21 (DE3), purified (nickel resin, Superdex 75)
stoichiometry N [3]: 2

B4: disulfide-bridged (locked) PICK1 PDZ-QSAV dimer (domain or fragment)
chain: MFADLDYDIEEDKLGIPTVPGKVTLQKDAQNLIGISIGGGAQYCPCLYIVQVFDNTPAALDGTVAAGDEITGVNGRSIKGKTKVEVAKMIQEVKGEVTIHYNKLQQSAV
modifications: intermolecular disulfides C44(A)-C46(B) and C44(B)-C46(A)
notes: human PICK1, residues 1 to 105, holding the PDZ domain; Same construct as m1 after oxidation; crystallised in the presence of BIO124, which was not seen in the structure; also called dimeric PICK1 PDZ-QSAV; oxidized dimer; source: E. coli BL21 (DE3), purified (nickel resin, Superdex 75), oxidised with 2.5 mM H2O2, Superdex 75
binding result [4]: binds
